The text below walks through data of patent US20190282673A1, “STAPHTAME ACTIVITY ON BIOFILMS” (priority 2016, published 2019).

For the experiment, the system named is multi-species biofilm (P. aeruginosa PAO1, S. aureus ATCC 700699, E. faecalis ATCC 29212). As to the kind of experiment: Lubbock chronic wound pathogenic biofilm (LCWPB) mixed culture model. The format is cell-based. To be noted: for CFU/mL of P. aeruginosa / CFU/mL of E. faecalis / CFU/mL of S. aureus: 24 h. Here is the method: LCWPB media (Bolton broth, Oxoid Ltd, supplemented with 50% Bovine Plasma and 5% hemolyzed horse blood) was used for multi-species biofilm formation according to the procedure described. Sun, et al. (2008) “In vitro multispecies Lubbock chronic wound biofilm model” Wound Repair Regen. 16:805-13. Briefly, P. aeruginosa PAO1, E. faecalis ATCC 29212 and S. aureus ATCC 700699 grown on TSB agar plates were inoculated into TSB broth and grown at 37° C. in a shaker for 16 h. The cultures were individually diluted to 1×10^6 CFU/mL, mixed in equal volumes, and 10 μL was added to 3 mL of LCWPB media containing a sterile pipette tip. For biofilm formation either two (P. aeruginosa PAO1, and S. aureus ATCC 700699) or all three bacterial species (P. aeruginosa PAO1, E. faecalis ATCC 29212 and S. aureus ATCC 700699) were inoculated into LCWPB media. In this model the pipette tip acts as a surface for biofilm formation. To test the ability of P128 to prevent biofilm formation, P128 at 10, 50 and 250 μg/mL was added to the tubes and the tubes were incubated at 37° C. in a shaker for 24 h with shaking at 150 rpm. Upon completion of incubation, the tips were removed from the tubes and placed on petri plates for observation. In the absence of P128, a confluent and thick mass of biofilm could be seen. The mass of the biofilm was greater in culture tubes with 3 species than in the ones with 2 species. For enumeration of bacteria in biofilms, the biofilm formed on the tips was washed twice in PBS, transferred into clean test tubes, and again washed twice with PBS. The washed biofilm mass was then transferred to a 50 mL conical polypropylene tube and the biofilm was macerated with sterile scissors. In situations when biofilm formation was not visible, the tips alone were processed as described above. The contents were vortexed thoroughly, diluted and plated on TSA plates. The plates were incubated for 24 h at 37° C. followed by incubation at ambient temperature for 24 h to enhance pigment production.

[1] abbreviates: two species (P. aeruginosa PAO1, S. aureus ATCC 700699), P128 10 μg/mL.

B1: P128: anti-staphylococcal chimeric protein: phage tail associated muralytic enzyme (TAME) cell wall-degrading region plus staphylococcus-specific binding region; SEQ ID NO: 1 (protein)
chain: MSLDSLKKYNGKLPKHDPSFVQPGNRHYKYQCTWYAYNRRGQLGIPVPLWGDAADWIGGAKGAGYGVGRTPKQGACVIWQRGVQGGSPQYGHVAFVEKVLDGGKKIFISEHNYATPNGYGTRTIDMSSAIGKNAQFIYDKKLETPNTGWKTNKYGTLYKSESASFTPNTDIITRTTGPFRSMPQSGVLKAGQTIHYDEVMKQDGHVWVGYTGNSGQRIYLPVRTWNKSTNTLGVLWGTIK
modifications: P128 chimera
Consider B1, for which, under “P128 1×MIC (10 μg/mL)”, the “Prevention of biofilm formation” value was “prevented the formation of biofilms”. The “CFU/mL of P. aeruginosa” value (three species (P. aeruginosa PAO1, S. aureus ATCC 700699, E. faecalis ATCC29212), P128 10 μg/mL) is reported as 2.2 × 10^5 CFU/mL; the “CFU/mL of P. aeruginosa” value (three species, P128 50 μg/mL) is listed as 7 × 10^4 CFU/mL; the “CFU/mL of P. aeruginosa” value (three species, P128 250 μg/mL) is on record as 1.7 × 10^5 CFU/mL; the “CFU/mL of P. aeruginosa” value under setting [1] is 2 × 10^6 CFU/mL; the “CFU/mL of P. aeruginosa” value (two species, P128 50 μg/mL) was 1.5 × 10^5 CFU/mL; the “CFU/mL of P. aeruginosa” value (two species, P128 250 μg/mL) is given as 8 × 10^5 CFU/mL. In addition, the “CFU/mL of E. faecalis” value is 9 × 10^5 CFU/mL (three species, P128 10 μg/mL); 1.8 × 10^4 CFU/mL (three species, P128 50 μg/mL); 1.6 × 10^4 CFU/mL (three species, P128 250 μg/mL). Besides, the “CFU/mL of S. aureus” value (three species, P128 10 μg/mL) is on record as 2 × 10^4 CFU/mL; the “CFU/mL of S. aureus” value (three species, P128 50 μg/mL) is reported as 2 × 10^3 CFU/mL; the “CFU/mL of S. aureus” value (three species, P128 250 μg/mL) is less than 10 CFU/mL; the “CFU/mL of S. aureus” value under setting [1] is on record as 2.2 × 10^5 CFU/mL; the “CFU/mL of S. aureus” value (two species, P128 50 μg/mL) is recorded as 1.8 × 10^5 CFU/mL; the “CFU/mL of S. aureus” value (two species, P128 250 μg/mL) was 2 × 10^3 CFU/mL.
